Source: the supplement of paper PMC7877785
± gives the uncertainty stated by the source.

Experiment: self-splicing fitness, log relative to wild type (ln ratio); higher = more splicing; Tetrahymena group I intron in knt gene, E. coli kanamycin selection, DiMSum; sequences stand for … in CUCUCU…GGAGGGAAAAGUUAUCAGGCAUGCACCUGGUAGCUAGUCUUUAAACCAAUAGAUUGCAUCGGUUUAAAAGGCAAGACCGUCAAAUUGCGGGAAAGGGGUCAACAGCCGUUCAGUACCAAGUCUCAGGGGAAACUUUGAGAUGGCCUUGCAAAGGGUAUGGUAAUAAGCUGACGGACAUGGUCCUAACCACGCAGCCAAGUCCUAAGUCAACAGAUCUUCUGUUGAUAUGGAUGCAGUUCACAGACUAAAUGUCGGUCGGGGAAGAUGUAUUCUUCUCAUAAGAUAUAGUCGGACCUCUCCUUAAUGGGAGCUAGCGGAUGAAGUGAUGCAACACUGGAGCCGCUGGGAACUAAUUUGUAUGCGAAAGUAUAUUGAUUAGUUUUGGAGUACUCGUGGUCG
Summary of the method: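 Pooled colonies went to amplicon sequencing on an Illumina HiSeq 2500 after six replicate transformations. The plates were LB agar with 100 μg/mL carbenicillin, 50 μM IPTG and 0.2% rhamnose, with or without 25 μg/mL kanamycin, incubated overnight at 37°C or 30°C. The E. coli BL21(DE3) library had all eight P1ex-region intron nucleotides randomised, the intron placed in the knt kanamycin-resistance gene on pET-22b(+). DiMSum fitness is the error-weighted combination of replicate fold changes, kanamycin against none, normalised to wild type.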

Sequence | self-splicing fitness (ln) (30 °C) | self-splicing fitness (ln) (37 °C)
GCCAAGCAAUAUUACGCACA | -1.07 ± 0.14 | -0.724 ± 0.15
GCCAAGCAAUAUUACGCAGA | -3.13 ± 0.16 | -2.22 ± 0.15
GCCAAGCAAUAUUACGCAUC | -0.673 ± 0.082 | 0.0458 ± 0.095
GCCAAGCAAUAUUACGCCAU | -3.22 ± 0.37 | -3.45 ± 0.46
GCCAAGCAAUAUUACGCCGU | -2.07 ± 0.087 | -1.45 ± 0.12
GCCAAGCAAUAUUACGCCUG | -4.13 ± 0.39 | -1.13 ± 0.19
GCCAAGCAAUAUUACGCGAG | -2.43 ± 0.11 | -2 ± 0.17
GCCAAGCAAUAUUACGCGUC | -1.31 ± 0.068 | -1.71 ± 0.088
GCCAAGCAAUAUUACGGAGC | -3.32 ± 0.1 | -2.38 ± 0.12
GCCAAGCAAUAUUACGGGAA | -0.356 ± 0.064 | -0.585 ± 0.079
GCCAAGCAAUAUUACGGUCG | -3.19 ± 0.13 | -2.27 ± 0.17
GCCAAGCAAUAUUACGGUUG | -3.23 ± 0.099 | -2.54 ± 0.14
GCCAAGCAAUAUUACGUAAU | -1.11 ± 0.062 | -0.183 ± 0.074
GCCAAGCAAUAUUACGUAUG | -2.94 ± 0.15 | -1 ± 0.13
GCCAAGCAAUAUUACGUGAC | -1.89 ± 0.13 | -0.468 ± 0.12
GCCAAGCAAUAUUACGUGCG | -2 ± 0.089 | -0.737 ± 0.1
GCCAAGCAAUAUUACGUUAA | -3.54 ± 0.21 | -2.89 ± 0.17
GCCCAGCAAUAUUACGAAAU | -1.7 ± 0.068 | -1.36 ± 0.089
GCCCAGCAAUAUUACGAACA | -1.58 ± 0.12 | -1.46 ± 0.11
GCCCAGCAAUAUUACGAACG | -1.79 ± 0.32 | -0.725 ± 0.34
GCCCAGCAAUAUUACGAUUG | -2.63 ± 0.14 | -2.57 ± 0.22
GCCCAGCAAUAUUACGCAAU | -1.23 ± 0.059 | -0.336 ± 0.069
GCCCAGCAAUAUUACGCACC | -0.112 ± 0.075 | 0.19 ± 0.097
GCCCAGCAAUAUUACGCAGG | -3.19 ± 0.13 | -2.27 ± 0.15
GCCCAGCAAUAUUACGCCAG | -1.92 ± 0.13 | -2.32 ± 0.23

Sequence | self-splicing fitness (ln) (30 °C) | self-splicing fitness (ln) (37 °C)
GCCCAGCAAUAUUACGCCCA | -0.496 ± 0.15 | -1.1 ± 0.17
GCCCAGCAAUAUUACGCCCG | -4 ± 0.28 | -2.36 ± 0.18
GCCCAGCAAUAUUACGCGAA | -2.09 ± 0.071 | -0.554 ± 0.072
GCCCAGCAAUAUUACGGAGA | -0.433 ± 0.062 | -0.0159 ± 0.072
GCCCAGCAAUAUUACGGAGU | -2.57 ± 0.084 | -0.683 ± 0.085
GCCCAGCAAUAUUACGGGAG | -0.834 ± 0.057 | -0.496 ± 0.067
GCCCAGCAAUAUUACGGGGG | -3.34 ± 0.11 | -2.78 ± 0.15
GCCCAGCAAUAUUACGGGUC | -4.06 ± 0.15 | -2.4 ± 0.16
GCCCAGCAAUAUUACGGGUG | -1.58 ± 0.048 | -0.819 ± 0.054
GCCCAGCAAUAUUACGGUGC | -3.13 ± 0.14 | -2.52 ± 0.18
GCCCAGCAAUAUUACGGUUA | -0.529 ± 0.054 | 0.488 ± 0.062
GCCCAGCAAUAUUACGUCGA | -1.5 ± 0.082 | -1.09 ± 0.086
GCCCAGCAAUAUUACGUGGA | -0.734 ± 0.063 | 0.199 ± 0.076
GCCCAGCAAUAUUACGUUGG | -3.22 ± 0.13 | -2.92 ± 0.15
GCCCAGCAAUAUUACGUUUA | -1.7 ± 0.079 | -0.893 ± 0.078
GCCGAGCAAUAUUACGAAUU | -2.59 ± 0.11 | -2.21 ± 0.15
GCCGAGCAAUAUUACGACGU | -0.371 ± 0.11 | -0.741 ± 0.11
GCCGAGCAAUAUUACGAGGG | -3.58 ± 0.27 | -1.91 ± 0.22
GCCGAGCAAUAUUACGAGUC | -1.86 ± 0.14 | -0.892 ± 0.16
GCCGAGCAAUAUUACGAGUG | -2.22 ± 0.14 | -2.16 ± 0.13
GCCGAGCAAUAUUACGAUAG | -2.94 ± 0.21 | -2.13 ± 0.21
GCCGAGCAAUAUUACGAUGA | -2.38 ± 0.12 | -1.28 ± 0.1
GCCGAGCAAUAUUACGAUGG | -2.48 ± 0.26 | -2.96 ± 0.31
GCCGAGCAAUAUUACGCAGA | -3.39 ± 0.47 | -2.39 ± 0.29
GCCGAGCAAUAUUACGCAUU | -2.73 ± 0.14 | -0.759 ± 0.13

Sequence | self-splicing fitness (ln) (30 °C) | self-splicing fitness (ln) (37 °C)
GCCGAGCAAUAUUACGCGGG | -4.07 ± 0.2 | -2.3 ± 0.18
GCCGAGCAAUAUUACGCUAG | -2.67 ± 0.17 | -3.17 ± 0.29
GCCGAGCAAUAUUACGCUGG | – | -2.07 ± 0.33
GCCGAGCAAUAUUACGGACA | -0.642 ± 0.083 | 0.233 ± 0.082
GCCGAGCAAUAUUACGGAGG | -3.45 ± 0.18 | -2.1 ± 0.21
GCCGAGCAAUAUUACGGCAA | -2.4 ± 0.33 | -1.91 ± 0.31
GCCGAGCAAUAUUACGGGGU | -4.35 ± 0.33 | -2.56 ± 0.2
GCCGAGCAAUAUUACGGGUU | -3.35 ± 0.17 | -0.886 ± 0.092
GCCGAGCAAUAUUACGUCGC | -4.48 ± 0.47 | -1.88 ± 0.25
GCCGAGCAAUAUUACGUCUG | -3.36 ± 0.32 | -2 ± 0.27
GCCGAGCAAUAUUACGUGAC | -2.14 ± 0.15 | -1.16 ± 0.19
GCCGAGCAAUAUUACGUGCA | -2.31 ± 0.25 | -2.24 ± 0.18
GCCGAGCAAUAUUACGUUAC | -3.09 ± 0.21 | -2.3 ± 0.19
GCCUAGCAAUAUUACGACAA | -2.19 ± 0.23 | -2.22 ± 0.32
GCCUAGCAAUAUUACGACUG | -3.25 ± 0.27 | -2.97 ± 0.4
GCCUAGCAAUAUUACGAGAA | – | -1.26 ± 0.4
GCCUAGCAAUAUUACGAGCC | -1.8 ± 0.15 | -1.67 ± 0.23
GCCUAGCAAUAUUACGAUUU | -1.98 ± 0.092 | -1.34 ± 0.097
GCCUAGCAAUAUUACGCAAA | -0.846 ± 0.14 | -1.41 ± 0.16
GCCUAGCAAUAUUACGCACG | -1.79 ± 0.23 | -1.43 ± 0.19
GCCUAGCAAUAUUACGCAGG | -4.18 ± 0.28 | -2.44 ± 0.25
GCCUAGCAAUAUUACGGACA | -1.03 ± 0.097 | -0.277 ± 0.11
GCCUAGCAAUAUUACGGAGG | -2.47 ± 0.29 | -2.65 ± 0.28
GCCUAGCAAUAUUACGGCCG | -3.44 ± 0.26 | -2.37 ± 0.32
GCCUAGCAAUAUUACGGCGA | -2.64 ± 0.4 | -1.41 ± 0.28
